# Measurements reported in patent US20190112365A1 (EISAI R AND D MANAGEMENT, published 2019).
# Substitutions are numbered along the chain they refer to. Several values for one entry are separate records, joined by “and”; a condition that tells them apart may be missing. Identical values can stand only once.
# B1: recombinant ms7G6, mouse IgG2b (antibody, V domains shown)
# VH: QVQLLQPGAELVKPGASVIMSCKASGYTFTTYWITWVKQRPGQGLEWIGDIYPGSSICNYNEKFKSKATLTVDTSSSTAYMQLNSLTSEDSAVYYCAREDGYDAWFAYWGQGTLVTVSA
# VL: DVLMTQTPLSLPVSLGDQASISCRSSQSILHSNGNTYLEWYLQKPGQSPKLLICKVSNRFSGVPDRFSGSGSGTDFTLKISRVEAEDLGVYYCFQGSHVPFTFGSGTKLEIK
# notes: Recombinant material, mouse IgG2b
# B2: recombinant ms7G6, mouse IgG2a (antibody, V domains shown)
# VH: B1 VH
# VL: B1 VL
# notes: Recombinant material, mouse IgG2a
# B3: 7G6-HCzu17-LCzu12 (antibody, human IgG1, kappa, V domains shown)
# VH: EVQLLESGGGLVQPGGSLRLSCAASGYTFTTYWITWVRQAPGKGLEWVSDIYPGSSICNYNEKFKSRFTISVDNSKNTLYLQMNSLRAEDTAVYYCAREDGYDAWFAYWGQGTLVTVSS
# VL: DVQMTQSPSSLSASVGDRVTITCRSSQSILHSNGNTYLEWYQQKPGKAPKLLICKVSNRFSGVPSRFSGSGSGTDFTLTISSLQPEDFATYYCFQGSHVPFTFGQGTKLEIKR
# notes: humanized, human IgG1 kappa
# B4: 7G6-HCzu12-LCzu13 (antibody, human IgG1, kappa)
# heavy: not shown
# light: DVQMTQSPSSLSASVGDRVTITCRSSQSILHSNGNTYLEWYQQKPGKAPKLLIYKVSNRFSGVPSRFSGSGSGTDFTLTISSLQPEDFATYYCFQGSHVPFTFGQGTKLEIKRTVAAPSVFIFPPSDEQLKSGTASVVCLLNNFYPREAKVQWKVDNALQSGNSQESVTEQDSKDSTYSLSSTLTLSKADYEKHKVYACEVTHQGLSSPVTKSFNRGEC
# notes: humanized, human IgG1 kappa
# B5: 7G6-HCzu16-LCzu12 (antibody, human IgG1, kappa, V domains shown)
# VH: B3 VH with L79A
# VL: B3 VL
# notes: humanized, human IgG1 kappa
# B6: 7G6-HCzu19-LCzu12 (antibody, human IgG1, kappa, V domains shown)
# VH: B3 VH with N61A, E62D, S66G, V72R
# VL: B3 VL
# notes: humanized, human IgG1 kappa
# B7: 7G6-HCzu11-LCzu11 (antibody, human IgG1, kappa, V domains shown)
# VH: B3 VH with V72R, R98K
# VL: B3 VL with V2I, C54Y
# notes: humanized, human IgG1 kappa
# B8: 7G6-HCzu18-LCzu12 (antibody, human IgG1, kappa, V domains shown)
# VH: B3 VH with V72R
# VL: B3 VL
# notes: humanized, human IgG1 kappa
# B9: 7G6-HCzu13-LCzu12 (antibody, human IgG1, kappa, V domains shown)
# VH: B3 VH with S49G, N61A, E62D, K63S, F64V, S66G, N77S, L79A
# VL: B3 VL
# notes: humanized, human IgG1 kappa
# B10: 7G6-HCzu20-LCzu12 (antibody, human IgG1, kappa, V domains shown)
# VH: B3 VH with N61A, E62D, S66G, V72R, R98K
# VL: B3 VL
# notes: humanized, human IgG1 kappa
# B11: 7G6-HCzu12-LCzu12 (antibody, human IgG1, kappa)
# heavy: not shown
# light: B4 light with Y54C
# notes: humanized, human IgG1 kappa
# B12: 7G6-HCzu15-LCzu12 (antibody, human IgG1, kappa, V domains shown)
# VH: B3 VH with S49G, L79A
# VL: B3 VL
# notes: humanized, human IgG1 kappa
# B13: 7G6-HCzu12-LCzu14 (antibody, human IgG1, kappa)
# heavy: not shown
# light: B4 light with V2I, Y54C
# notes: humanized, human IgG1 kappa
# B14: 7G6-HCzu14-LCzu12 (antibody, human IgG1, kappa, V domains shown)
# VH: B3 VH with S49G, N61A, E62D, S66G, N77S, L79A
# VL: B3 VL
# notes: humanized, human IgG1 kappa
# B15: 7G6-HCzu12-LCzu16 (antibody, human IgG1, kappa, V domains shown)
# VH: B3 VH with S49G, N77S, L79A
# VL: B3 VL with L30V, C54S
# notes: humanized, human IgG1 kappa
# B16: 7G6-HCzu12-LCzu11 (antibody, human IgG1, kappa)
# heavy: not shown
# light: B4 light with V2I
# notes: humanized, human IgG1 kappa
# B17: 7G6-HCzu12-LCzu15 (antibody, human IgG1, kappa, V domains shown)
# VH: B3 VH with S49G, N77S, L79A
# VL: B3 VL with C54S
# notes: humanized, human IgG1 kappa
# B18: 7G6-HCzu7-LCzu6 (antibody, human IgG1, kappa, V domains shown)
# VH: QVQLVQSGAEVKKPGASVKVSCKASGYTFTTYWITWVRQAPGQGLEWMGDIYPGSSISNYAQKFQGRVTMTVDTSTSTVYMELSSLRSEDTAVYYCAREDGYDAWFAYWGQGTLVTVSS
# VL: DVVMTQSPLSLPVTLGQPASISCRSSQSILHSNGNTYLEWYQQRPGQSPRLLISKVSNRFSGVPDRFSGSGSGTDFTLKISRVEAEDVGVYYCFQGSHVPFTFGQGTKLEIKR
# notes: humanized, human IgG1 kappa
# B19: 7G6-HCzu9-LCzu6 (antibody, human IgG1, kappa, V domains shown)
# VH: B18 VH with S58C
# VL: B18 VL
# notes: humanized, human IgG1 kappa
# B20: 7G6-HCzu10-LCzu6 (antibody, human IgG1, kappa, V domains shown)
# VH: B18 VH with S58C, V72R
# VL: B18 VL
# notes: humanized, human IgG1 kappa
# Biological target: T1, Human Tau 2N4R, wild type, recombinant full length (human, UniProt P10636 2-758)
# T1 construct: Full length 2N4R isoform; monomer in SPR and ELISA; heparin-induced aggregates or seeds in the functional assays; also called Tau441; Tau-441
# T1 sequence (P10636 other isoform, or with tags, fused parts or gaps limits assumed): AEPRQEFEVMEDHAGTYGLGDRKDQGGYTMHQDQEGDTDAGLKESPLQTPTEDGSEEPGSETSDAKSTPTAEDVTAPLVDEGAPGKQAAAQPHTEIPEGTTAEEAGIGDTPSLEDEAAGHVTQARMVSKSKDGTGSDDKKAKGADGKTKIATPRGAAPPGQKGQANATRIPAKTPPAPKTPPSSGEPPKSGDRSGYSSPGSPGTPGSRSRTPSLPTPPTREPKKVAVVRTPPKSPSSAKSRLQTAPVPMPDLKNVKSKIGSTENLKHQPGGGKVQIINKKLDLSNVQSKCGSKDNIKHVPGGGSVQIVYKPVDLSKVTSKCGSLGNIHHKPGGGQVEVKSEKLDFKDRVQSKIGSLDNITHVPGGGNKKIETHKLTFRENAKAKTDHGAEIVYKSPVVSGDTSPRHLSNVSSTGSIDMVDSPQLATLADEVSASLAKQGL
# Assay: SPR BIAcore, mAb captured by anti-mouse IgG, Tau flowed, 1:1 Langmuir
# Protocol: (§1) All experiments were performed using a BIAcore™ T-100 instrument (GE Healthcare). 10 μL anti-human IgG (monoclonal mouse anti-human Fc) from human antibody capture kit (GE Healthcare) was diluted to 25 μL/mL in 200 μL final immobilization buffer (10 mM sodium acetate, pH 5.0). The flow rate was set to 5 μL/min, flowpath 1. Fifty μL N-hydroxysuccinamide (NETS) and 50 μL 1-ethyl-3-(3-dimethylaminopropyl) carbidiimide (EDC) were mixed and injected for 420 sec to activate the CM5 chip surface. The diluted antibody was injected for 360 seconds followed by 1 M ethanolamine for 420 seconds. The flowpath was then switched to flowpath 2. A new EDC/NHS mixture was prepared and the procedure was repeated for flow cell 2. The surface was conditioned by 2 injections of 30 sec using flowpath 1, 2 at 30 μL/min of 3M MgCl₂. For the anti-mouse surface, 10 μL anti-mouse IgG (polyclonal rabbit anti-mouse IgG) from mouse antibody capture kit (GE Healthcare) was diluted to 30 μL/mL in 324 μL final immobilization buffer (10 mM sodium acetate, pH 5.0). The flow rate was set to 5 μL/min, flowpath 3. Fifty μL NHS and 50 μL EDC were mixed and injected for 420 sec to activate the chip surface. The diluted antibody was injected for 420 sec. 1 M ethanolamine was injected for 420 sec. Flow path was switched to flowpath 4. A new EDC/NHS mixture was prepared and the procedure was repeated for flow cell 4. The surface was conditioned by 2 injections of 30 sec using flowpath 3, 4 at 30 μL/min of 10 mM glycine, pH 1.7.
# (§2) Binding of humanized and mouse antibodies were analyzed by BIAcore™ to determine their relative association rates (ka), dissociation rates (kd), and equilibrium binding constants (KD). Anti-mouse or anti-human antibodies were immobilized on a CM5 chip and sample mAbs were captured on the chip. 2N4R Tau was flowed over the chip and binding observed. The binding constants kₐ, kd, and KD were determined using a 1:1 Langmuir fitting model. Both 7G6-HCzu12-based mAbs had similar kₐ and kd values (Table 8). However, the kₐ of 7G6-HCzu11 was decreased, though the kd was unaffected. Therefore, human residues in the Vh3 framework impact binding to Tau.
Kd,koff,kon,Binder
4.17 nM,0.00156 s⁻¹,373000 M⁻¹ s⁻¹,B1
2.73 nM,0.0015 s⁻¹,549000 M⁻¹ s⁻¹,B2

# Biological target: T1, Human Tau 2N4R, wild type, recombinant …
# Assay: as above
# Remark: another data set of the same source
# Protocol: as §1, §2
Kd,koff,kon,Binder
4.17 nM,0.00156 s⁻¹,373000 M⁻¹ s⁻¹,B1
2.73 nM,0.0015 s⁻¹,549000 M⁻¹ s⁻¹,B2

# Biological target: T1, Human Tau 2N4R, wild type, recombinant …
# Assay: SPR BIAcore, mAb captured by anti-human IgG, Tau flowed, 1:1 Langmuir
# Protocol: as §1, §2
Kd,koff,kon,Binder
0.073 nM,0.000124 s⁻¹,1.7e+06 M⁻¹ s⁻¹,B3
0.0888 nM,0.000124 s⁻¹,1.4e+06 M⁻¹ s⁻¹,B4
0.114 nM,0.000174 s⁻¹,1.53e+06 M⁻¹ s⁻¹,B5
0.121 nM,0.000152 s⁻¹,1.25e+06 M⁻¹ s⁻¹,B6
0.205 nM,0.000175 s⁻¹,853000 M⁻¹ s⁻¹,B7
0.0815 nM,0.000128 s⁻¹,1.57e+06 M⁻¹ s⁻¹,B8
0.168 nM,0.000239 s⁻¹,1.42e+06 M⁻¹ s⁻¹,B9
0.119 nM,0.000136 s⁻¹,1.14e+06 M⁻¹ s⁻¹,B10
0.129 nM and 0.0875 nM,0.000193 s⁻¹ and 0.000151 s⁻¹,1.49e+06 M⁻¹ s⁻¹ and 1.72e+06 M⁻¹ s⁻¹,B11
0.138 nM,0.000278 s⁻¹,2.02e+06 M⁻¹ s⁻¹,B12
0.0689 nM,0.000119 s⁻¹,1.73e+06 M⁻¹ s⁻¹,B13
0.133 nM,0.000194 s⁻¹,1.46e+06 M⁻¹ s⁻¹,B14
0.099 nM,0.000148 s⁻¹,1.49e+06 M⁻¹ s⁻¹,B15
0.132 nM,0.000181 s⁻¹,1.38e+06 M⁻¹ s⁻¹,B16
0.0959 nM,0.000141 s⁻¹,1.47e+06 M⁻¹ s⁻¹,B17

# Biological target: T1, Human Tau 2N4R, wild type, recombinant …
# Assay: as above
# Remark: another data set of the same source
# Protocol: as §1
# Binding of humanized and mouse antibodies were analyzed by surface plasmon resonance (BIAcore™) to determine their relative association rates (kₐ), dissociation rates (kd), and equilibrium binding constants (KD). Anti-mouse or anti-human antibodies were immobilized on a CM5 chip and sample mAbs were captured on the chip. 2N4R Tau was flowed over the chip and binding observed. The binding constants kₐ, kd, and KD were determined using a 1:1 Langmuir fitting model.
Kd,koff,kon,Binder
0.109 nM,0.000226 s⁻¹,2.08e+06 M⁻¹ s⁻¹,B18
0.0938 nM,0.000193 s⁻¹,2.06e+06 M⁻¹ s⁻¹,B19
0.108 nM,0.000213 s⁻¹,1.98e+06 M⁻¹ s⁻¹,B20
